Measurements published in patent US20260266848A1, “COMPOSITIONS AND METHODS FOR DIAGNOSING AND TREATING DYSTONIA” (Duke University, priority 2023, published 2026).

B1: Itgb3 (protein, UniProt O54890 26-787, looked up)
Integrin beta-3: ESNICTTRGVNSCQQCLAVSPVCAWCSDETLSQGSPRCNLKENLLKDNCAPESIEFPVSEAQILEARPLSSKGSGSSAQITQVSPQRIALRLRPDDSKIFSLQVRQVEDYPVDIYYLMDLSFSMKDDLSSIQTLGTKLASQMRKLTSNLRIGFGAFVDKPVSPYMYISPPQAIKNPCYNMKNACLPMFGYKHVLTLTDQVSRFNEEVKKQSVSRNRDAPEGGFDAIMQATVCDEKIGWRNDASHLLVFTTDAKTHIALDGRLAGIVLPNDGHCHIGTDNHYSASTTMDYPSLGLMTEKLSQKNINLIFAVTENVVSLYQNYSELIPGTTVGVLSDDSSNVLQLIVDAYGKIRSKVELEVRDLPEELSLSFNATCLNNEVIPGLKSCVGLKIGDTVSFSIEAKVRGCPQEKEQSFTIKPVGFKDSLTVQVTFDCDCACQAFAQPSSPRCNNGNGTFECGVCRCDQGWLGSMCECSEEDYRPSQQEECSPKEGQPICSQRGECLCGQCVCHSSDFGKITGKYCECDDFSCVRYKGEMCSGHGQCNCGDCVCDSDWTGYYCNCTTRTDTCMSTNGLLCSGRGNCECGSCVCVQPGSYGDTCEKCPTCPDACSFKKECVECKKFNRGTLHEENTCSRYCRDDIEQVKELTDTGKNAVNCTYKNEDDCVVRFQYYEDTSGRAVLYVVEEPECPKGPDILVVLLSVMGAILLIGLATLLIWKLLITIHDRKEFAKFEEERARAKWDTANNPLYKEATSTFTNITYRGT
B2: Scarb2 (protein, UniProt Q14108 1-478, looked up)
Lysosome membrane protein 2: MGRCCFYTAGTLSLLLLVTSVTLLVARVFQKAVDQSIEKKIVLRNGTEAFDSWEKPPLPVYTQFYFFNVTNPEEILRGETPRVEEVGPYTYRELRNKANIQFGDNGTTISAVSNKAYVFERDQSVGDPKIDLIRTLNIPVLTVIEWSQVHFLREIIEAMLKAYQQKLFVTHTVDELLWGYKDEILSLIHVFRPDISPYFGLFYEKNGTNDGDYVFLTGEDSYLNFTKIVEWNGKTSLDWWITDKCNMINGTDGDSFHPLITKDEVLYVFPSDFCRSVYITFSDYESVQGLPAFRYKVPAEILANTSDNAGFCIPEGNCLGSGVLNVSICKNGAPIIMSFPHFYQADERFVSAIEGMHPNQEDHETFVDINPLTGIILKAAKRFQINIYVKKLDDFVETGDIRTMVFPVMYLNESVHIDKETASRLKSMINTTLIITNIPYIIMALGVFFGLVFTWLACKGQGSMDEGTADERAPLIRT
B3: Ipo7 (protein, UniProt Q9EPL8 1-1038, looked up)
Importin-7: MDPNTIIEALRGTMDPALREAAERQLNEAHKSLNFVSTLLQITMSEQLDLPVRQAGVIYLKNMITQYWPDREATPGDIAPYTIPEEDRHCIRENIVEAIIHSPELIRVQLTTCIHHIIKHDYPSRWTAIVDKIGFYLQSDNSACWLGILLCLYQLVKNYEYKKPEERSPLVAAMQHFLPVLKDRFIQLLSDQSDQSVLIQKQIFKIFYALVQYTLPLELINQQNLTEWVEILKTVVNRDVPNETLQVEEDDRPELPWWKCKKWALHILARLFERYGSPGNVSKEYNEFAEVFLKAFAVGVQQVLLKVLYQYKEKQYMAPRVLQQTLNYINQGVSHALTWKNLKPHIQGIIQDVIFPLMCYTDADEELWQEDPYEYIRMKFDVFEDFISPTTAAQTLLFTACSKRKEVLQKTMGFCYQILTEPNADPRKKDGALHMIGSLAEILLKKKIYKDQMEYMLQNHVFPLFSSELGYMRARACWVLHYFCEVKFKSDQNLQTALELTRRCLIDDREMPVKVEAAIALQVLISNQEKAKEYITPFIRPVMQALLHIIRETENDDLTNVIQKMICEYSEEVTPIAVEMTQHLAMTFNQVIQTGPDEEGSDDKAVTAMGILNTIDTLLSVVEDHKEITQQLEGICLQVIGTVLQQHVLEFYEEIFSLAHSLTCQQVSPQMWQLLPLVFEVFQQDGFDYFTDMMPLLHNYVTVDTDTLLSDTKYLEMIYSMCKKVLTGVAGEDAECHAAKLLEVIILQCKGRGIDQCIPLFVEAALERLTREVKTSELRTMCLQVAIAALYYNPHLLLNTLENLRFPNNVEPVTNHFITQWLNDVDCFLGLHDRKMCVLGLCALIDMEQIPQVLNQVSGQILPAFILLFNGLKRAYACHAEHENDSDDDEDAEDDDETEELGSDEDDIDEDGQEYLEILAKQAGEDGDDEDWEEDDAEETALEGYSTIIDDEDNPVDEYQIFKAIFQTIQNRNPVWYQALTHGLNEEQRKQLQDIATLADQRRAAHESKMIEKHGGYKFSAPVVPSSFNFGGPAPGMN
B4: Uba3 (protein, UniProt Q8C878 2-462, looked up)
NEDD8-activating enzyme E1 …: ADGEEPEKKRRRIEELLAEKMAVDGGCGDTGDWEGRWNHVKKFLERSGPFTHPDFEPSTESLQFLLDTCKVLVIGAGGLGCELLKNLALSGFRQIHVIDMDTIDVSNLNRQFLFRPKDVGRPKAEVAAEFLNDRVPNCNVVPHFNKIQDFNDTFYRQFHIIVCGLDSIIARRWINGMLISLLNYEDGVLDPSSIVPLIDGGTEGFKGNARVILPGMTACIECTLELYPPQVNFPMCTIASMPRLPEHCIEYVRMLQWPKEQPFGDGVPLDGDDPEHIQWIFQKSIERASQYNIRGVTYRLTQGVVKRIIPAVASTNAVIAAVCATEVFKIATSAYIPLNNYLVFNDVDGLYTYTFEAERKENCPACSQLPQNIQFSPSAKLQEVLDYLTNSASLQMKSPAITATLEGKNRTLYLQSVTSIEERTRPNLSKTLKELGLVDGQELAVADVTTPQTVLFKLHFT
B5: Slc44a1 (protein, UniProt Q6X893 2-653, looked up)
Choline transporter-like …: GCCSSASAAQSSKREWKPLEDRSCTDIPWLLLFVLFCIGMGFICGFSVATGAAARLVSGYDSYGNICGQRNAKLEAIPNSGLDHTHRKYVFFLDPCNLDLINRKIKSIALCVAACPRQELKTLSDVQKFAEINGSALCSYNIKPSEYTLTSKSSGFCPKLPVPASAPIPFFHRCAPVNISCYAKFAEALITFVSDNSVLHRLISGVMTSKEIILGLCLLSLVLSMILMVIIRYISRVLVWILTVLVILGSLGGTGVLWWLYAKQRRSPKEAVIPEQLQIAEDNLRALLIYAISATVFTVILFLIMLVMRKRVALTIALFHVAGKVFIHLPLLVFQPFWTFFALVLFWAYWIMTLLFLGTTGSAVQNEQGFVEYKISGPLQYMWWYHVVGLIWISEFILACQQMTVAGAVVTYYFTRDKRNLPFTPILASVNRLIRYHLGTVAKGSFIITLVKIPRMVLMYIHSQLKGKENACARCMLKSCICCLWCLEKCLSYLNQNAYTATAINSTNFCTSAKDAFVILVENALRVAAINTVGDFMLFLGKVLIVCSTGLAGIMLLNYQQDYTVWVLPLIIVCLFAFLVAHCFLSIYEMVVDVLFLCFAIDTKYNDGSPGREFYMDKVLMEFVENSRKAMKEAGKGGAADARELKPMLRKR
B6: Cryab (protein, UniProt P23927 1-175, looked up)
Alpha-crystallin B chain: MDIAIHHPWIRRPFFPFHSPSRLFDQFFGEHLLESDLFSTATSLSPFYLRPPSFLRAPSWIDTGLSEMRLEKDRFSVNLDVKHFSPEELKVKVLGDVIEVHGKHEERQDEHGFISREFHRKYRIPADVDPLTITSSLSSDGVLTVNGPRKQVSGPERTIPITREEKPAVAAAPKK
B7: Esyt1 (protein, UniProt Q3U7R1 1-1092, looked up)
Extended synaptotagmin-1: MEHSPEEGASPEPSGQPPATDSTRDGGSGVPPAGPGAASEALAVLTSFGRRLLVLVPVYLAGAAGLSVGFVLFGLALYLGWRRVRDGKERSLRAARQLLDDEERITAETLYMSHRELPAWVSFPDVEKAEWLNKIVAQVWPFLGQYMEKLLAETVAPAVRGANPHLQTFTFTRVELGEKPLRIIGVKVHPSQRKDQILLDLNVSYVGDVQIDVEVKKYFCKAGVKGMQLHGVLRVILEPLTGDLPIVGAVSMFFIKRPTLDINWTGMTNLLDIPGLSSLSDTMIMDSIAAFLVLPNRLLVPLVPDLQDVAQLRSPLPRGIIRIHLLAARGLSSKDKYVKGLIEGKSDPYALVRVGTQTFCSRVIDEELNPHWGETYEVIVHEVPGQEIEVEVFDKDPDKDDFLGRMKLDVGKVLQAGVLDNWYPLQGGQGQVHLRLEWLSLLPDAEKLDQVLQWNRGITSRPEPPSAAILVVYLDRAQDLPLKKGNKEPNPMVQLSVQDVTRESKATYSTNSPVWEEAFRFFLQDPRSQELDVQVKDDSRALTLGALTLPLARLLTASELTLDQWFQLSSSGPNSRLYMKLVMRILYLDYSEIRFPTVPGAQDWDRESLETGSSVDAPPRPYHTTPNSHFGTENVLRIHVLEAQDLIAKDRFLGGLVKGKSDPYVKLKVAGKSFRTHVVREDLNPRWNEVFEVIVTSIPGQELEIEVFDKDLDKDDFLGRYKVSLTTVLNSGFLDEWLTLEDVPSGRLHLRLERLTPRPTAAELEEVLQVNSLIQTQKSSELAAALLSVFLERAEDLPLRKGTKPPSPYATITVGETSHKTKTVSQSSAPVWEESASFLIRKPHAESLELQVRGEGTGTLGSVSLPLSELLQEDQLCLDHWFALSGQGQVLMRAQLGILVSQHSGVEAHSHSYSHSHSSSSLNDEPEALGGPTHPASPVLEVRHRLTHGDSPSEAPVGPLGQVKLTVWYHSDEQKLISIIHSCRALRQNGRDLPDPYVSVLLLPDKNRSTKRKTPQKKRTLNPEFNERFEWDLPLDGTLRRKLDVSVKSNSSFMSRERELLGKVQLDLAEIDLSQGAAQWYDLMDDRDKGGS

Tests used:
[1] = tested on: WT MEF EVs; assay: Quantitative LC-MS/MS proteomics of EVs from ISRIB-treated WT MEF cultures; type: cell-based, mouse; set-up: key to ISRIB and DYT Parallel Direction / ISRIB and DYT Parallel Direction, Ctdsp1 / ISRIB and DYT Parallel Direction, Pcdh19 / ISRIB and DYT Parallel Direction, Tspan7 / ISRIB and DYT Parallel Direction, Myo1e / ISRIB and DYT Parallel Direction, Plpp3 / ISRIB and DYT Parallel Direction, Sh3bp4 / ISRIB and DYT Parallel Direction, Dnajc7 / ISRIB and DYT Parallel Direction, Drg1 / ISRIB and DYT Parallel Direction, Maea: YES = protein abundance effect similar to DYT/WT; settings: EV protein abundance; for WT + ISRIB/WT Cohen's d: ISRIB-treated WT vs WT
[2] = tested on: DYT-TOR1A MEF EVs; assay: Quantitative LC-MS/MS proteomics of EVs from drug-treated DYT-TOR1A MEF cultures (ritonavir, salubrinal); type: cell-based, mouse; set-up: key to RTV Corrective Direction / RTV Corrective Direction, Grwd1 / RTV Corrective Direction, Srrm2 / RTV Corrective Direction, Rbm17 / RTV Corrective Direction, Dcaf8 / RTV Corrective Direction, Edil3 / RTV Corrective Direction, Timp3 / RTV Corrective Direction, Heatr3 / RTV Corrective Direction, Brd4 / RTV Corrective Direction, P3h4 / RTV Corrective Direction, Pacsin3 / RTV Corrective Direction, Naa50 / RTV Corrective Direction, Lpar6 / RTV Corrective Direction, Ndrg1 / RTV Corrective Direction, Kntc1 / RTV Corrective Direction, Cdk11b / RTV Corrective Direction, Sumo1 / RTV Corrective Direction, Lsm4 / RTV Corrective Direction, Hmga2 / RTV Corrective Direction, Cstf1 / RTV Corrective Direction, Tes / RTV Corrective Direction, Sbno1 / RTV Corrective Direction, Unc119b / RTV Corrective Direction, Cfdp1 / RTV Corrective Direction, Sec61b: YES = protein abundance effect opposite to DYT/WT; settings: EV protein abundance; for RTV Corrective Direction: DYT + RTV (ritonavir) vs DYT, direction compared with DYT/WT; for DYT + RTV/DYT Cohen's d: ritonavir (RTV)-treated DYT vs DYT

Molecule	WT + ISRIB/WT Cohen's d [1]	RTV Corrective Direction [2]	DYT + RTV/DYT Cohen's d [2]	ISRIB and DYT Parallel Direction ([1]; WT + ISRIB vs WT, direction compared with DYT/WT)
B1	0.14	YES	1.96	–
B2	0.09	YES	0.24	–
B3	0.30	YES	2.25	–
B4	−1.68	YES	10.01	YES
B5	0.80	YES	0.84	–
B6	0.39	YES	1.11	–
B7	0.18	YES	1.25	–
